The record followed here is publication PMC12365249.

This assay has as its target FOXA1 (UniProt P55317). The assay is described as follows: endogenous co-IP with FOXA1 antibody. Particulars: reference: wild type; sites T603.

Regarding “MED15 (from UniProt Q96RN5) T603A knock-in”, the “binding against the reference” value is recorded as “stronger”.
